Assay results taken from the supplement of paper PMC9732359.
± gives the uncertainty stated by the source.

Assay: protein stability index of a GFP-peptide fusion (yeast GPS) (PSI 1-4); higher = more stable; sorted into four equal gates, so the index is relative within each strain
Procedure, shortened: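 Tiled 17-residue peptides from yeast proteins were fused downstream of GFP on a plasmid that also expresses Cherry, and the pooled library was carried in yeast. Mid-log cultures grown in leucine-free medium were sorted into four equal gates by GFP/Cherry fluorescence ratio. Plasmids from each gate were PCR-amplified and Illumina-sequenced, and reads were assigned to strains by barcodes. Each peptide's protein stability index is the sum, over gates, of the gate's read frequency multiplied by its gate number.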

Sequence	protein stability index (doa10∆)	protein stability index (pdr5∆)	protein stability index (san1∆)	protein stability index (ubr1∆)
KVVTKKYCEIMGDNSQL [SNF2]	3.19 ± 0.17	3.25 ± 0.14	2.88 ± 0.15	2.98 ± 0.1
KVWLDPNETSEIAQANS [RPL19A]	3.16 ± 0.23	3.69 ± 0.24		3.04 ± 0.29
KWSKKSMKDRAQHAVIL [RPS25A]	2.37 ± 0.058	2.42 ± 0.095	2.73 ± 0.091	2.63 ± 0.054
KYHNDLIEKEIQPKITE [SMC1]	3.11 ± 0.13	3.05 ± 0.083	2.71 ± 0.073	3.07 ± 0.059
KYIALQVIVDIFSVHGN [YCG1]	1.26 ± 0.081	1.36 ± 0.14	1.14 ± 0.14	1.75 ± 0.16
KYKPTPLYVMDEIDAAL [SMC4]	2.45 ± 0.085	3.06 ± 0.11	3 ± 0.07	2.81 ± 0.057
KYNRYEKRHKNVPVHVS [RPS11A]	1.61 ± 0.041	1.66 ± 0.044	1.69 ± 0.092	1.94 ± 0.055
KYPIFTGESWVKLTYNS [YDL088C/ASM4]	1.82 ± 0.049	2.07 ± 0.068	2.07 ± 0.1	2.34 ± 0.058
KYRQTKLSKEERAARVA [RPL5]	2.7 ± 0.11	3.05 ± 0.071	2.97 ± 0.13	2.65 ± 0.07
KYSKLVDNVTLESYKTQ [SRP72]	3.54 ± 0.15	3.22 ± 0.16	3.42 ± 0.1	3.22 ± 0.11
LAAPKKLNDSQRKTVNS [POP1]	3.18 ± 0.075	2.98 ± 0.12	3.02 ± 0.065	3.34 ± 0.075
LAAVPAAGPASAGGAAA [RPP2A]	2.35 ± 0.085	1.58 ± 0.063	1.4 ± 0.26	1.61 ± 0.071
LAFIPNILALNLVSLLI [YML031W/NDC1]	1.83 ± 0.073	1.38 ± 0.044	1.44 ± 0.098	1.73 ± 0.047
LAHSQHRCAIRSGALIK [SSN2]	1.5 ± 0.058	1.22 ± 0.046	1.16 ± 0.13	1.16 ± 0.037
LAHVDQIVDIRNKRAVQ [YJL039C/NUP192]	2.35 ± 0.13	2.55 ± 0.12	2.76 ± 0.12	2.71 ± 0.13
LAIADSPQKFETNLQTF [ECM29]	2.96 ± 0.11	3.3 ± 0.098	3.25 ± 0.048	2.79 ± 0.091
LAIIGDENPDLLGYTGI [PRE8]	1.71 ± 0.06	1.93 ± 0.081	2.73 ± 0.098	1.93 ± 0.054
LALERMVPKRSTIITKA [YCS4]	1.28 ± 0.1	1.47 ± 0.066	1.16 ± 0.11	1.08 ± 0.091
LALINYGRQELADDLIT [RPN2]		1.82 ± 0.26	1.57 ± 0.28	1.49 ± 0.14
LANLIRDALRNIKNTNE [RRP6]	2.37 ± 0.045	2.51 ± 0.055	2.63 ± 0.055	2.49 ± 0.036
LASAIASGLLRAYLSHS [CSN12]	1.85 ± 0.045	1.5 ± 0.052	1.62 ± 0.071	1.4 ± 0.054
LASIPDIFITPTPVVTI [SSN2]	1.71 ± 0.054	1.65 ± 0.054	1.45 ± 0.098	1.63 ± 0.044
LCAGANNPKIQTKDSVK [IRR1]	3.29 ± 0.1	2.99 ± 0.1	3.13 ± 0.11	3.15 ± 0.057
LCLEKLMCLSSKYCEKS [YCS4]	1.55 ± 0.051	2.34 ± 0.087	2.27 ± 0.18	1.92 ± 0.059
LCVLDYDNIDIQRGRIL [RPB7]	1.96 ± 0.1	1.93 ± 0.1	3.08 ± 0.13	2.42 ± 0.12
LDAKNKVFVPPKSKSLP [RPO31]	2.71 ± 0.075	3.03 ± 0.062	3.37 ± 0.085	2.72 ± 0.055
LDDDSIVNHEQDLPKIN [SRB4]	2.7 ± 0.14	2.92 ± 0.082	2.99 ± 0.09	2.81 ± 0.063

Sequence	protein stability index (doa10∆)	protein stability index (pdr5∆)	protein stability index (san1∆)	protein stability index (ubr1∆)
LDDITDSNTTEILTSVD [SIR4]	3.26 ± 0.066	3.18 ± 0.072	2.94 ± 0.069	3.08 ± 0.065
LDDLVVLKKKNIQKKQP [RRP6]	1.44 ± 0.079	1.38 ± 0.061	2.08 ± 0.12	2.34 ± 0.14
LDDQIFVCEKSIEFAKR [RPN6]				1.27 ± 0.16
LDEVDAALDITNVQRIA [SMC1]	3.16 ± 0.096	3.06 ± 0.098	3.14 ± 0.1	3.16 ± 0.087
LDFIGRRGTALGIKKEK [RPB2]	1.68 ± 0.075	2.03 ± 0.097	2.27 ± 0.059	2.07 ± 0.08
LDISVFLLEKAGERKIP [TAF14]	2.26 ± 0.078	2.43 ± 0.072	2.44 ± 0.063	2.16 ± 0.061
LDKHERKWMEEKADYER [YIL149C/MLP2]	2.8 ± 0.094	3.35 ± 0.15	2.66 ± 0.13	3.25 ± 0.12
LDKLDEILYYQIKTLPE [AAR2]	2.89 ± 0.13	2.97 ± 0.14	3 ± 0.13	3.25 ± 0.15
LDLKECYQFAEYLFKPQ [ARP7]	3.05 ± 0.084	3.06 ± 0.08	3.03 ± 0.063	2.97 ± 0.059
LDLLRPVVRAPTVKYNR [RPL13A]	1.64 ± 0.13	2.38 ± 0.2	1.7 ± 0.17	2.08 ± 0.11
LDSMIELFKDYKPGSIT [MED1]	2.15 ± 0.074	1.94 ± 0.047	1.82 ± 0.1	1.99 ± 0.052
LDTQLITLLPSSLKESS [SNF12]	2.89 ± 0.24			
LDVDPAKRIRVSHHATT [RPB2]	3.02 ± 0.06	3.04 ± 0.06	2.79 ± 0.082	3 ± 0.044
LDYVRTPAAATSPIDIR [SNF2]	2.33 ± 0.056	2.45 ± 0.063	2.14 ± 0.077	2.36 ± 0.045
LEASYSKSYTPRKLVLS [SMC4]	2.31 ± 0.043	2.52 ± 0.059	2.11 ± 0.088	2.22 ± 0.05
LEEITQYEHLIKGIREY [YDL116W/NUP84]	2.35 ± 0.22	3.07 ± 0.13	2.94 ± 0.2	2.81 ± 0.14
LEEKLYQMQSNYESVFT [YIL149C/MLP2]	2.24 ± 0.052	1.71 ± 0.028	2.52 ± 0.068	2.57 ± 0.045
LEELAETFQDTFSGALG [FAS2]	2.95 ± 0.065	3.06 ± 0.077	3.21 ± 0.05	3.31 ± 0.067
LEFYKDKFFNEVNKSEL [SIR3]	3.31 ± 0.066	3.27 ± 0.058	3.25 ± 0.043	3.43 ± 0.064
LEKVVPLINVVVDILSA [BRR2]				1.26 ± 0.19
LELGSCFSQENIEEMAR [SIN4]	2.02 ± 0.06	2.21 ± 0.073	2.64 ± 0.078	2.64 ± 0.073
LELIGVLSINPDMYERK [MED7]	2.73 ± 0.077	2.98 ± 0.086	2.89 ± 0.053	2.73 ± 0.061
LELLNQLDGFSSDDRVK [RPT5]	3.07 ± 0.064	3.15 ± 0.056	2.96 ± 0.051	3.03 ± 0.046
LELQVAQAFVELENSSP [RPS7A]	3.15 ± 0.14	3.14 ± 0.15	2.92 ± 0.19	1.85 ± 0.11
LELVNTPLTENILIASL [YCG1]	1.66 ± 0.052	1.62 ± 0.042	1.93 ± 0.083	2.27 ± 0.037
LEMLKPCVEDGFVIQDR [RPB2]	3.17 ± 0.086	3.29 ± 0.12	3.19 ± 0.19	3.23 ± 0.077
